The source of these data is the RNAGym collection of RNA variant scans (doi:10.1073/pnas.2313332121).

To fix the notation:
B1: TPR t1 (parent)
chain: GACCAAUCUGCCCUCAGAGCUCGAGAACAUCUUCGGAUGCAGAGGAGGCAGGCUUCGGUGGCGCGAUAGCGCCAACGUCCUCAACCUCCAAUGCAUCCCACCACAUGAUGAUGCCUGAAGAGCCUUGGUUUUUUG

The variants in this data set derive from B1. The data set is described as follows: polymerase ribozyme fitness, log enrichment relative to wild type (log ratio); higher = more active; in vitro selection for triplet polymerase activity. A digest of the protocol: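 Genotype fitness is the logarithm of its enrichment divided by wild-type enrichment, using inverse-variance-weighted averages of replicates. That logarithm is base 2. Enrichment was measured by Illumina sequencing of input and output libraries from one triplicate in vitro selection round, with frozen incubation at −7 °C, on PCR-built, transcribed mutant libraries of each subunit of a heterodimeric triplet polymerase ribozyme, retaining genotypes with ≥10 input reads and ≥1 read per output.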
Turning to C12U A18C G71U U131C, the “polymerase ribozyme fitness (log ratio)” value is -1.9.

With C12U G48U A111C, the “polymerase ribozyme fitness (log ratio)” value is -0.108.

For C12U C115U, the “polymerase ribozyme fitness (log ratio)” value is -0.992.

With C12U C28G, the “polymerase ribozyme fitness (log ratio)” value was -1.98.

With C12U C13U C20A G47C C86U, the “polymerase ribozyme fitness (log ratio)” value was -2.7.

Regarding C12U C20U C40U C49G, the “polymerase ribozyme fitness (log ratio)” value is -1.67.

On to C13A G77U U106A C114A, for which the “polymerase ribozyme fitness (log ratio)” value was -4.55.

For C12G C72U, the “polymerase ribozyme fitness (log ratio)” value was determined as 0.127.

Regarding C13A G47U G63U, the “polymerase ribozyme fitness (log ratio)” value was -4.2.

C12G C62G A108G: the “polymerase ribozyme fitness (log ratio)” value was -3.58.

As to C13A, the “polymerase ribozyme fitness (log ratio)” value was -1.61.

Regarding C13G, the “polymerase ribozyme fitness (log ratio)” value is -1.53.

C12U G39A C56A: the “polymerase ribozyme fitness (log ratio)” value is -0.34.

With C13G A37G G71U C102G A103U U112A G117U G127C U130G, the “polymerase ribozyme fitness (log ratio)” value is -6.56.

On to C12U A29C U131G, for which the “polymerase ribozyme fitness (log ratio)” value is -2.88.

C12U A75G G128A: the “polymerase ribozyme fitness (log ratio)” value was -1.43.

As for C12A U55G C72U U92G, the “polymerase ribozyme fitness (log ratio)” value was -2.88.

For C12G C82U C97A, the “polymerase ribozyme fitness (log ratio)” value was -3.58.

In the case of C13A A16U G117U, the “polymerase ribozyme fitness (log ratio)” value is -4.37.

As to C12U C79U, the “polymerase ribozyme fitness (log ratio)” value was 0.083.

Turning to C12U C56A C73A U78C A111G U129G, the “polymerase ribozyme fitness (log ratio)” value is -1.25.

Turning to C12U A27G A66C C73A U78C C101A, the “polymerase ribozyme fitness (log ratio)” value is -4.25.

Turning to C12U C76G C79A C99U U126C, the “polymerase ribozyme fitness (log ratio)” value is -5.59.

As for C12U A37U G60C, the “polymerase ribozyme fitness (log ratio)” value was -1.06.

As to C12A U133G, the “polymerase ribozyme fitness (log ratio)” value was -1.24.

Turning to C12U G39A C72A A74G C79U C80G, the “polymerase ribozyme fitness (log ratio)” value is -5.3.

Turning to C13A G45U G69U, the “polymerase ribozyme fitness (log ratio)” value is -1.92.

Regarding C13A G47C, the “polymerase ribozyme fitness (log ratio)” value is -3.14.

Consider C12U U54A A91C C115U, for which the “polymerase ribozyme fitness (log ratio)” value is -0.811.

In the case of C12U A43C A90U, the “polymerase ribozyme fitness (log ratio)” value was -0.274.

Take C13A G36C G69C: the “polymerase ribozyme fitness (log ratio)” value was -2.94.

Consider C12G C13U G52U G61U C102U A121U G122C, for which the “polymerase ribozyme fitness (log ratio)” value was -1.95.

In the case of C13G C20U G48A, the “polymerase ribozyme fitness (log ratio)” value was -3.29.

In the case of C12U C124G, the “polymerase ribozyme fitness (log ratio)” value turned out to be 2.23.

C12G C15A C22U A26G U116C A118U C124G: the “polymerase ribozyme fitness (log ratio)” value was -2.97.

As for C12U C20U A43U G45A C56G G113A, the “polymerase ribozyme fitness (log ratio)” value was 0.057.

Take C12G G44U G60U A100U: the “polymerase ribozyme fitness (log ratio)” value is -0.779.

Turning to C13A G52A U59C G113A, the “polymerase ribozyme fitness (log ratio)” value is -3.69.

As to C12U C13U A43G G61A, the “polymerase ribozyme fitness (log ratio)” value is -2.1.

Consider C12U A37U A119U, for which the “polymerase ribozyme fitness (log ratio)” value is -0.00616.

As for C13A G60U G69U, the “polymerase ribozyme fitness (log ratio)” value was -4.92.

For C13A G61C A90C, the “polymerase ribozyme fitness (log ratio)” value was -5.48.

With C13A U21C G57A U59G A75U C86U C97U, the “polymerase ribozyme fitness (log ratio)” value was -5.71.

For C13A C53A, the “polymerase ribozyme fitness (log ratio)” value was -0.605.

Turning to C12U A41U C56A U87A C114U, the “polymerase ribozyme fitness (log ratio)” value was -3.21.

For the variant C13A C73A G120A C123A, the “polymerase ribozyme fitness (log ratio)” value was -0.951.

Turning to C12G A27U C56U C101G C102A C104G C114U, the “polymerase ribozyme fitness (log ratio)” value was -5.64.

Consider C12U G48A C115G U129A G135U, for which the “polymerase ribozyme fitness (log ratio)” value is -2.25.

Turning to C13A U96A, the “polymerase ribozyme fitness (log ratio)” value was -2.64.

For C12G C56A, the “polymerase ribozyme fitness (log ratio)” value worked out at 0.208.

For the variant C12U U14A C64U G110U G113A U130C, the “polymerase ribozyme fitness (log ratio)” value was -4.16.

For the variant C13A U21A U54C C56G C86A U106G C124U, the “polymerase ribozyme fitness (log ratio)” value is -2.59.

Regarding C12U C22U U59C C89G U109A U116A C123G, the “polymerase ribozyme fitness (log ratio)” value was -7.4.

On to C13A C85G C123U, for which the “polymerase ribozyme fitness (log ratio)” value is -0.463.

As to C13A U112G, the “polymerase ribozyme fitness (log ratio)” value is -1.5.

In the case of C13A A26U A46U U81G C114U, the “polymerase ribozyme fitness (log ratio)” value is -6.71.

For C12U G17U C94U G113A, the “polymerase ribozyme fitness (log ratio)” value was -2.71.

Take C12G C34G G69U A83C: the “polymerase ribozyme fitness (log ratio)” value was -3.04.

As to C13A G61A C88A G110A, the “polymerase ribozyme fitness (log ratio)” value is -2.92.

For C12U G48A U131A, the “polymerase ribozyme fitness (log ratio)” value was -0.967.

Take C12G C20U C76A: the “polymerase ribozyme fitness (log ratio)” value was -1.37.

In the case of C12U G60C U112G, the “polymerase ribozyme fitness (log ratio)” value amounted to 0.137.

On to C12U G71A, for which the “polymerase ribozyme fitness (log ratio)” value is -0.123.

Regarding C12G A18U G51U A74G C86A C124A, the “polymerase ribozyme fitness (log ratio)” value is -6.6.

Turning to C12G C114U, the “polymerase ribozyme fitness (log ratio)” value was -1.65.

On to C12U C15U, for which the “polymerase ribozyme fitness (log ratio)” value was -0.154.

C13A A29G C70U A95U C124A: the “polymerase ribozyme fitness (log ratio)” value was -1.57.

Regarding C13A G93C C123G, the “polymerase ribozyme fitness (log ratio)” value is -0.906.

Take C12U C13A C114G: the “polymerase ribozyme fitness (log ratio)” value was -4.

C12G C53A C73G G107C U112C: the “polymerase ribozyme fitness (log ratio)” value is -3.66.

With C12U C40U A90G, the “polymerase ribozyme fitness (log ratio)” value came to 0.0487.

Consider C12G A29U G39U U55G, for which the “polymerase ribozyme fitness (log ratio)” value was -2.45.

As to C12U G51U C73A U92A G113U U116G, the “polymerase ribozyme fitness (log ratio)” value is -7.04.

On to C12U G36C G117U, for which the “polymerase ribozyme fitness (log ratio)” value was -0.382.

Turning to C12U U96G G128C, the “polymerase ribozyme fitness (log ratio)” value is -2.88.

Take C13A C89G C97U: the “polymerase ribozyme fitness (log ratio)” value is -3.27.

For the variant C12U U109A, the “polymerase ribozyme fitness (log ratio)” value was -3.34.

For the variant C12A U55A G122A U126A, the “polymerase ribozyme fitness (log ratio)” value was -5.02.

With C13A A29G, the “polymerase ribozyme fitness (log ratio)” value is -3.22.

C13A G117A: the “polymerase ribozyme fitness (log ratio)” value is -4.07.

As for C12G A26G C98U, the “polymerase ribozyme fitness (log ratio)” value is -3.76.

Take C12G A16U G45U C89G U129C: the “polymerase ribozyme fitness (log ratio)” value was -4.69.

On to C12U C49A C76G C80G C88A U92C U112C, for which the “polymerase ribozyme fitness (log ratio)” value was -7.46.
